Data taken from US12606635B2, “Glypican-2-binding moieties, chimeric antigen receptors and uses thereof” (Nanjing Legend Biotech Co., Ltd., priority 2020, dated 2026).

T1: recombinant human GPC2 protein (Homo sapiens, UniProt Q8N158)
T1 construct: His; purchased RD System (R&D Systems) 2304-GP
T1 sequence (Q8N158 24-554): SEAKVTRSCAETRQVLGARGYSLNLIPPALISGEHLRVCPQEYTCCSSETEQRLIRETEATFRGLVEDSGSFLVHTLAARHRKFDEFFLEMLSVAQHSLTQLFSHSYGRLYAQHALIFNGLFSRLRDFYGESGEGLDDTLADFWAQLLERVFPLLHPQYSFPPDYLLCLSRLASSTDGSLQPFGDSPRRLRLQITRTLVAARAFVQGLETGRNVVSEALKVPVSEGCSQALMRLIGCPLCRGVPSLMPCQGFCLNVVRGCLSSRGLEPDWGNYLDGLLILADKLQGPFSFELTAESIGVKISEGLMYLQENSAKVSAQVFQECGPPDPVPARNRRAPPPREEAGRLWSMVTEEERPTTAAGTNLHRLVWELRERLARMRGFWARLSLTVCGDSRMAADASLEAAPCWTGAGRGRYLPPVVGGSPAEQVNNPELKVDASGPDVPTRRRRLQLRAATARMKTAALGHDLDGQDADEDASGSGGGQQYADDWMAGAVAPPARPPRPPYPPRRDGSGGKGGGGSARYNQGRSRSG

T2: human GPC2 expressing cells SH-SY5Y (Homo sapiens, UniProt Q8N158)
T2 construct: host or cells: SH-SY5Y
T2 sequence (Q8N158 24-554): T1 sequence (Q8N158 24-554)

T3: human GPC2 expressing cells HEK293T/hGPC2 (Homo sapiens, UniProt Q8N158)
T3 construct: expressed in transfected cells; host or cells: HEK293T (ATCC, #CRL-1573), plvx-EF1α-puro plasmid
T3 sequence (Q8N158 24-554): T1 sequence (Q8N158 24-554)

T4: recombinant human GPC2-His protein (Homo sapiens, UniProt Q8N158)
T4 construct: His
T4 sequence (Q8N158 24-554): T1 sequence (Q8N158 24-554)

B1: AS71529VH6-hIgG1Fc: AS71529VH6 VHH fused to human IgG1Fc fragment (protein)
chain: EVQLVESGGGLVQPGGSLRLSCAVSEYRYSSRYCMGWFRQAPGKGREGVAAIDSNGSADYVDSVKGRFTISKDNSKNTLYLQMNSLRAEDTAMYYCAADHLAYDCYSGATSVFRYWGQGTLVTVSS
modifications: left off: a dimerising Fc or GST
notes: AS71529VH6 VHH fused to human IgG1Fc fragment
B2: AS79236VH6-hIgG1Fc: AS79236VH6 VHH fused to human IgG1Fc fragment (protein)
chain: EVQLVESGGGLVQPGGSLRLSCAVSGYTYSSYCMAWFRQAPGKGLEGVASIDAGGRTTYVDSVKGRFTISKDNAKNSLYLQMNSLRAEDTAMYYCAVDVRTRCGGTWDGEAVYFPYWGQGTLVTVSS
modifications: left off: a dimerising Fc or GST
notes: AS79236VH6 VHH fused to human IgG1Fc fragment
B3: AS70950VH6-hIgG1Fc: AS70950VH6 VHH fused to human IgG1Fc fragment (protein)
chain: EVQLVESGGGLVQPGGSLRLSCAISEFTYKNTCVGWFRQAPGKGREGVAAIDSDGNTNYVDSVKGRFTISQDNSKNTVYLQMNSLRAEDTAMYYCAAGAYCGRLLLWIGNYAYWGQGTLVTVSS
modifications: left off: a dimerising Fc or GST
notes: AS70950VH6 VHH fused to human IgG1Fc fragment
B4: AS78117VH4-hIgG1Fc: AS78117VH4 VHH fused to human IgG1Fc fragment (protein)
chain: EVQLVESGGGLVQPGGSLRLSCIVSRYTYATYSMAWFRQAPGKGLEGVSGLDSVGATGYAESVKGRFTISRDNSKNTLYLQMNSLRAEDTAVYYCVVDPASAKVTYGSWSTPSYAYWGQGTLVTVSS
modifications: left off: a dimerising Fc or GST
notes: AS78117VH4 VHH fused to human IgG1Fc fragment
B5: AS71529VH6-AS70950VH6: tandem humanized anti-GPC2 VHH, SEQ ID NO: 146; tested as VHH-HIS protein (protein)
VHH: EVQLVESGGGLVQPGGSLRLSCAVSEYRYSSRYCMGWFRQAPGKGREGVAAIDSNGSADYVDSVKGRFTISKDNSKNTLYLQMNSLRAEDTAMYYCAADHLAYDCYSGATSVFRYWGQGTLVTVSSGGGGSGGGGSGGGGSEVQLVESGGGLVQPGGSLRLSCAISEFTYKNTCVGWFRQAPGKGREGVAAIDSDGNTNYVDSVKGRFTISQDNSKNTVYLQMNSLRAEDTAMYYCAAGAYCGRLLLWIGNYAYWGQGTLVTVSS
modifications: His tag; AS71529VH6-AS70950VH6
notes: tested as VHH-HIS protein
B6: AS71529VH6: humanized anti-GPC2 VHH, SEQ ID NO: 127; tested as VHH-HIS protein (protein)
VHH: B1 chain
modifications: His tag; AS71529VH6
notes: tested as VHH-HIS protein
B7: AS72669VH6: humanized anti-GPC2 VHH, SEQ ID NO: 130; tested as VHH-HIS protein (protein)
VHH: QVQLVESGGGVVQPGGSLRLSCAASRFTYSSYCMGWIRQAPGKGREGVAIFYTGGGRTYYADSVKGRFTISQDNSKNTLYLQMNSLRAEDTAVYYCVAGFYCSGGYWEGDFGYWGQGTLVTVSS
modifications: His tag; AS72669VH6
notes: tested as VHH-HIS protein
B8: AS70950VH6: humanized anti-GPC2 VHH, SEQ ID NO: 124; tested as VHH-HIS protein (protein)
VHH: B3 chain
modifications: His tag; AS70950VH6
notes: tested as VHH-HIS protein

Biological target: T1, recombinant human GPC2 protein
Experiment: ELISA-based specific binding assay, human GPC2
Details: FIG. 3A-3G
Experimental: (§1) To evaluate the specificity of humanized anti-GPC2 VHH5 to recombinant human GPC2 protein, an ELISA-based binding assay was conducted to determine the differential target proteins binding of anti-GPC2 VHH5. Briefly, microplates were coated with 2 μg/mL recombinant human GPC1-His (RD System, Cat #4519-GP), GPC2-His (RD System, Cat #2304-GP), GPC3-His (ACRO, Cat #GP3-H5223), GPC4-Fc (RD System, Cat #9195-GP), GPC5-His (RD System, Cat #2607-G5/CF), GPC6-His (RD System, Cat #2845-GP) or recombinant mouse GPC2-His (RD System, Cat #2355-GP) proteins. Recombinant human protein coated plates were blocked with skim milk. Serially diluted humanized VHH-hIgG1Fc recombinant antibodies were added to each well of the plates and incubated at 4° C. for 1.5 h. Samples were further labelled with HRP-conjugated goat anti human IgG (H+L) secondary antibody (Genescript, Cat #A00166-1) and signal was developed with 3,3′,5,5′-Tetramethylbenzidine (TMB) substrate according to manufacturer's instruction. For the GPC4, VHH-His recombinant antibodies and anti-His tag secondary antibody (Genescript, Cat #A00612) were added to the GPC4-Fc coated plates instead. Optic density at 450 nm was measured by plate reader.

| Molecule | binding to recombinant human GPC2 protein |
| --- | --- |
| B1 | high affinity |
| B2 | high affinity |
| B3 | high affinity |
| B4 | high affinity |

Biological target: T2, human GPC2 expressing cells SH-SY5Y
Experiment: Flow cytometry binding of VHH-His proteins to SH-SY5Y
Details: FIG. 4A-4C
Description: (§2) Recombinant anti-GPC2 VHH-His proteins were constructed by fusing the anti-GPC2 VHH sequence to a mouse Ig heavy chain signal peptide sequence (N′-MGWSWILLFLLSVTAGVHS-C; SEQ ID NO: 179) at the N terminus, and a 6×His-tag (N′-HHHHHH-C; SEQ ID NO: 180) at the C terminus. The codons were further optimized for optimal expression in mammalian engineered immune effector cells. The obtained nucleotide sequences were then cloned into a mammalian expression vector pCDNA3.4 to provide expression plasmids.
(§3) Binding affinities of humanized VHH proteins AS70950VH6, AS71529VH6, AS72669VH6 and AS71529VH6-AS70950VH6 anti-GPC2 VHH-HIS proteins to human GPC2 expressing cells (SH-SY5Y and HEK293T/hGPC2) and cynomolgus monkey GPC2 expressing cell (HEK293T/cynoGPC2) were determined using flow cytometry. Briefly, serially diluted anti-GPC2 VHH-HIS proteins were incubated with 2×10^5 target cells at 4° C. for 30 mins. After washing, cells were further labelled with THE™ His tag Antibody (iFluor 647) (Genescript, #A01802) at 4° C. for 30 mins. Fluorescence intensity was measured by flow cytometry. A four parameters variable slope curve was fitted to each group using GraphPad Prism for Windows Version 6.02.

| Molecule | binding to SH-SY5Y |
| --- | --- |
| B5 | specifically bind |
| B6 | specifically bind |
| B7 | specifically bind |
| B8 | specifically bind |

System: other recombinant human and murine GPC family proteins (human GPC1, GPC3, GPC4, GPC5, GPC6, mouse GPC2)
Experiment: ELISA-based specific binding assay, cross-reactivity
Details: FIG. 3A-3G
Experimental: as §1

| Molecule | cross-reactivity with other recombinant human and murine GPC family proteins |
| --- | --- |
| B2 | no cross-reactivity |
| B3 | no cross-reactivity |
| B4 | no cross-reactivity |

Biological target: T3, human GPC2 expressing cells HEK293T/hGPC2
Experiment: Flow cytometry binding of VHH-His proteins to HEK293T/hGPC2
Details: FIG. 4A-4C
Description: as §2, §3

| Molecule | binding to HEK293T/hGPC2 |
| --- | --- |
| B5 | specifically bind |
| B6 | specifically bind |
| B7 | specifically bind |
| B8 | specifically bind |

Biological target: T4, recombinant human GPC2-His protein
Experiment: SPR (Biacore T200) affinity of anti-GPC2 VHH-hIgG1Fc
Details: 1:1 binding model
Experimental: Each of the exemplary anti-GPC2 VHH sequences was cloned into a vector comprising a human IgG1Fc fragment (hlgG1Fc) sequence to facilitate recombinant expression of anti-GPC2 VHH-hlgG1Fc. Recombinant proteins were obtained and purified for SPR assays. The affinity of each anti-GPC2 VHH-hIgG1Fc for GPC2 was determined by SPR using a BIACORE® T200 analytical system (GE Healthcare). Briefly, recombinant human GPC2-His protein was covalently coupled to a CM5(s) sensor chip using an amine coupling kit. Exemplary VHH-hIgG1Fc proteins were serially diluted in running buffer (10 mM HEPES, 150 mM NaCl, 3 mM EDTA, 0.05% Tween-20, pH 7.4) and injected over the chip cell at a flowrate of 100 μL/min for 100 seconds followed by buffer-only injection for 300 seconds to allow for antibody dissociation. The dissociation […] (KD) were determined using the BIACORE® T200 evaluation software version 3.0 (Langmuir binding, local fit, 1:1 binding model).

| Molecule | ka [M⁻¹ s⁻¹] | kd [s⁻¹] |
| --- | --- | --- |
| B1 | 850000 | 0.0044 |
| B2 | 530000 | 0.00019 |
| B3 | 390000 | 0.00011 |
| B4 | 200000 | 0.00017 |

System: cynomolgus monkey GPC2 expressing cell HEK293T/cynoGPC2
Experiment: Flow cytometry binding of VHH-His proteins to HEK293T/cynoGPC2
Details: FIG. 4A-4C
Description: as §2, §3

| Molecule | binding to HEK293T/cynoGPC2 |
| --- | --- |
| B5 | specifically bind |
| B6 | specifically bind |
| B7 | specifically bind |
| B8 | specifically bind |
